Laboratory results from US20240158497A1 (published 2024).

B1: bsAb21236D (bispecific antibody, V domains shown)
VH 1: QVQLQESGPGLVKPSQTLSLTCTVSGGSISSGGDYWSWIRQLPGKGLEWIGYIYYSGSAYYNPSLKSRGTISIDTSKNQFSLKLTSVTAADTAVYFCVKLRFLEWFLGGWFGPWGQGTLVTVSS
VH 2: QVQLVESGGGLVKPGGSLRLSCAASGFTFSDYYMTWIRQTPGKGLDWVSYISSSGTNKYNADSVKGRFTISRDNAKNSLYLQMNSLRAEDTAVYYCVRDPPWGMDVWGQGTTVTVSS
VL: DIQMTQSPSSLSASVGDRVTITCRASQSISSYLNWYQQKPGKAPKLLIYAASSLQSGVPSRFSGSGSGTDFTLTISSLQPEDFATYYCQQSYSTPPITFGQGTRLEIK
notes: LEPR x GP130 bispecific with common light chain; also called H4H21236D; bsAb21236 (LEPR × GP130)
B2: bsAb21237D (bispecific antibody, V domains shown)
VH 1: EVQLVESGGGLVQPGGSLRLSCAASGFTFSNYGMTWVRQAPGKGLEWVSAITGGGGSTYYSNSVKGRFTISRDNSKNTVYLRMNSVRAEDTAVYYCAKYKWNFVDDWGQGTTVTVSS
VH 2: B1 VH 2
VL: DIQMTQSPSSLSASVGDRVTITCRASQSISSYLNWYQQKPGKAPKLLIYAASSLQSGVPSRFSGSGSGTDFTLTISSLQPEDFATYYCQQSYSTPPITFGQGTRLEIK
notes: LEPR x GP130 bispecific with common light chain; also called H4H21237D; bsAb21237 (LEPR × GP130)
B3: MAb16666 (antibody, V domains shown)
VH: EVQLVESGGGLVQSGGSLRLSCAASGFTFSRYEMNWVRQAPGKGLEWVAYISNTGTTRDYSDSVKGRFTISRDNAKNSLYLQMSSLRVEDTAVYYCVREKFSGTSDWFDPWGQGTLVTVSS
VL: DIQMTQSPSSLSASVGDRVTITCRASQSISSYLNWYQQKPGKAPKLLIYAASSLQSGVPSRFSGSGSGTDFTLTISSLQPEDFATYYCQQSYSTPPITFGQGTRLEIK
notes: hIgG4 isotype control used

Legend:
[1] = biological target: T1, mutant human LEPR (Y1141F) on HEK293.STAT3.Luc.GP130.hLEPR (Y1141F) cells (human, UniProt P48357 22-1165); assay: cell-based or functional assay
T1 sequence (looked up): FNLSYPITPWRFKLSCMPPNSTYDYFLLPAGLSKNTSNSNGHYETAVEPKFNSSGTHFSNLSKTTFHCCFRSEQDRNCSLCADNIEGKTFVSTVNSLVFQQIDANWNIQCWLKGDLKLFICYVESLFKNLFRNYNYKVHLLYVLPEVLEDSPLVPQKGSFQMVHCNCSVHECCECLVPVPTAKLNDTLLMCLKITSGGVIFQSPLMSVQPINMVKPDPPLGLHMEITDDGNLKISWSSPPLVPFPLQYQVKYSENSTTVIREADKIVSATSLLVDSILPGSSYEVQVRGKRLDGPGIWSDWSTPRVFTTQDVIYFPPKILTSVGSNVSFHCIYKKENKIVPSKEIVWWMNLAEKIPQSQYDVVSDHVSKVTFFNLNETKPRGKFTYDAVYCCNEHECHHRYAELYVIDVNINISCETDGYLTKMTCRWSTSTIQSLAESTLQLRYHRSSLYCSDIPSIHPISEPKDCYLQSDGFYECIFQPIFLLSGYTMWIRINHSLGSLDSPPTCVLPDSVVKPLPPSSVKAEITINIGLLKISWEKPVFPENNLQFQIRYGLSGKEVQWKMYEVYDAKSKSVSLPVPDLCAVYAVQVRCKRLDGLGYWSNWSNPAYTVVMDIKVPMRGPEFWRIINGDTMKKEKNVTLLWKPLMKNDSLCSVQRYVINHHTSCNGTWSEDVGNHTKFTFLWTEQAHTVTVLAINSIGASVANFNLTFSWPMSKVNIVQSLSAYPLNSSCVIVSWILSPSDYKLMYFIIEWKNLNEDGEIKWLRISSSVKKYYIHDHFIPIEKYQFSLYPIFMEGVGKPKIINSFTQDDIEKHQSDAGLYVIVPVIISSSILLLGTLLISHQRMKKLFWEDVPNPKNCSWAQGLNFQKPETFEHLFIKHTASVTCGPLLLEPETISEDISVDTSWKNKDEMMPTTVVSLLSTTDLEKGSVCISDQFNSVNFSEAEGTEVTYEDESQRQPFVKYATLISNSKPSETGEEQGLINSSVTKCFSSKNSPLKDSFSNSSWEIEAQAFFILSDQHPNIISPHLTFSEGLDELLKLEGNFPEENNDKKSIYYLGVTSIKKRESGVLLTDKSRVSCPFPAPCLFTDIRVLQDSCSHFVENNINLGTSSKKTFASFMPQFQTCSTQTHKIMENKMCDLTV

[2] = biological target: T2, human gp130 extracellular domain (E23-E619) with C-terminal mouse IgG2a Fc (human); assay: blocking ELISA, 2.5 nM hGP130-mFc on plate-bound CNTFR/CNTF complex; * below lower limit of quantitation 1.25E-09M
T2 construct: dimeric; also called hGP130-mFc; human GP130-mFc
T2 chain: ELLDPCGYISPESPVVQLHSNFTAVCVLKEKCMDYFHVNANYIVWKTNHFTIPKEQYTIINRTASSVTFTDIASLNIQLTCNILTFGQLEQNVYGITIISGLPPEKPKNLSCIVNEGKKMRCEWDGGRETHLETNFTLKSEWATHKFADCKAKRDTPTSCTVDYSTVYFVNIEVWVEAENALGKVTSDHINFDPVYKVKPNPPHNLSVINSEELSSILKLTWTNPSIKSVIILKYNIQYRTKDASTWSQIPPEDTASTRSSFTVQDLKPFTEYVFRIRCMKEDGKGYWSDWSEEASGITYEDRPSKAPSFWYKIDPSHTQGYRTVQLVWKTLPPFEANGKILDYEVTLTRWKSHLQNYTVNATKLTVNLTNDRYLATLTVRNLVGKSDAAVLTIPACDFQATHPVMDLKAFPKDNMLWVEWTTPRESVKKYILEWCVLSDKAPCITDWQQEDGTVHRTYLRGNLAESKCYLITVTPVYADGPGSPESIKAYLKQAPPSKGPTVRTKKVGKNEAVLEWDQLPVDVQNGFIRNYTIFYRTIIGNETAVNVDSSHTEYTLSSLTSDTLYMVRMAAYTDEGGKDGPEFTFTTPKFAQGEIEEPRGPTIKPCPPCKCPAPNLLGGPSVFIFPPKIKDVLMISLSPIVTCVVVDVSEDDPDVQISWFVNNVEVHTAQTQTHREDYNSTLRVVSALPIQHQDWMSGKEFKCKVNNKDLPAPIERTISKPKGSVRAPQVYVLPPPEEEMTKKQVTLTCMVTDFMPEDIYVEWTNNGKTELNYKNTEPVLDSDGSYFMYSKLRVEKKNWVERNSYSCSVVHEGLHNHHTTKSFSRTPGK
Method: The experiment was carried out using the following procedure. Human CNTFRα was coated at a concentration of […] in HBSS on a 96-well microtiter plate overnight at 4° C. […] Human CNTF at a concentration of 1 μg/ml in HBSS was added to the plate bound CNTFRα for 1 hour at room temperature. In separate dilution plates, a constant amount of 2.5 nM of human GP130-mFc protein was titrated with antibodies ranging from 3.4 pM to 200 nM in serial dilution and with no antibody present. These solutions were incubated for 1 hour at room temperature (RT) and subsequently transferred to the microtiter plates with CNTFRα/CNTF complex without washing. The plates were incubated for 2 hours at RT, washed with PBST buffer, and plate-bound hGP130-mFc was detected with an anti-mFc polyclonal antibody conjugated with horseradish peroxidase (HRP) (Jackson ImmunoResearch Inc). Samples were developed with a TMB solution (BD Biosciences, substrate A and B mixed at 1:1 ratio as per manufacturer's instructions) to produce a colorimetric reaction and then neutralized with 1M sulfuric acid before measuring absorbance at 450 nm on a Victor X5 plate reader.
Data analysis was performed using a sigmoidal dose-response model within Prism™ software (GraphPad). […]

Row | Binder | EC50 (M), STAT3-luciferase activation of HEK293.STAT3.Luc.GP130.hLEPR (Y1141F) cells, 10 nM leptin [1] | IC50 [2]
1 | B1 | 2.11e-09 M | 
2 | B2 | 2.46e-09 M | 
3 | B3 |  | 0.644 nM
